T1: PR (Homo sapiens, UniProt P06401)
T1 construct: expressed in transfected cells; host or cells: DU145, PC-3
T1 sequence (P06401 1-933): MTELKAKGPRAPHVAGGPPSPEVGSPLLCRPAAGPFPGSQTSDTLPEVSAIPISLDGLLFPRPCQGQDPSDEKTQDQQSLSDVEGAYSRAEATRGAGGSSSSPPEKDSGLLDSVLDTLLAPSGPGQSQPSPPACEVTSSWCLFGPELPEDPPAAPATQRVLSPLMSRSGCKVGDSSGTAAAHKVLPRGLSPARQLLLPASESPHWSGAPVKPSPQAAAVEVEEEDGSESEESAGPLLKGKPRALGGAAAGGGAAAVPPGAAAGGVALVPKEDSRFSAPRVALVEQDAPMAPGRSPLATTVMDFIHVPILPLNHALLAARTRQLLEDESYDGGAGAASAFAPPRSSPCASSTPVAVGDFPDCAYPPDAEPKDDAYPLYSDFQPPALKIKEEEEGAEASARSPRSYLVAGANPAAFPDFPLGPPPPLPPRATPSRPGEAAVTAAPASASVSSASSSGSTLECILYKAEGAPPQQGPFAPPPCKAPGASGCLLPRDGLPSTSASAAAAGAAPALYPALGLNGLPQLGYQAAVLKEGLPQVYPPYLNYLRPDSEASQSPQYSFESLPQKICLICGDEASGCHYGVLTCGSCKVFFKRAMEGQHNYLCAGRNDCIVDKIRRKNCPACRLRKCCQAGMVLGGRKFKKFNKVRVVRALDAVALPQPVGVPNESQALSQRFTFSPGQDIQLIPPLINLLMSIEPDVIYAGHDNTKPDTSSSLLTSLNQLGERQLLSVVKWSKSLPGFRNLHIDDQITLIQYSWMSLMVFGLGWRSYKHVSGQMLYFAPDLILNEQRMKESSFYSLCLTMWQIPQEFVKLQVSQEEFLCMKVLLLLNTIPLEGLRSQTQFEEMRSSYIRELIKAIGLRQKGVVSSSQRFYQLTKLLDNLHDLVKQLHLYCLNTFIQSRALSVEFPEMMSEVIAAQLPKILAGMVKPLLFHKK

T2: ARA54-ARA54 interactions (Homo sapiens, UniProt Q9UBS8)
T2 construct: fl-ARA54, full-length ARA54; expressed in transfected cells; host or cells: DU145
T2 sequence (Q9UBS8 1-474): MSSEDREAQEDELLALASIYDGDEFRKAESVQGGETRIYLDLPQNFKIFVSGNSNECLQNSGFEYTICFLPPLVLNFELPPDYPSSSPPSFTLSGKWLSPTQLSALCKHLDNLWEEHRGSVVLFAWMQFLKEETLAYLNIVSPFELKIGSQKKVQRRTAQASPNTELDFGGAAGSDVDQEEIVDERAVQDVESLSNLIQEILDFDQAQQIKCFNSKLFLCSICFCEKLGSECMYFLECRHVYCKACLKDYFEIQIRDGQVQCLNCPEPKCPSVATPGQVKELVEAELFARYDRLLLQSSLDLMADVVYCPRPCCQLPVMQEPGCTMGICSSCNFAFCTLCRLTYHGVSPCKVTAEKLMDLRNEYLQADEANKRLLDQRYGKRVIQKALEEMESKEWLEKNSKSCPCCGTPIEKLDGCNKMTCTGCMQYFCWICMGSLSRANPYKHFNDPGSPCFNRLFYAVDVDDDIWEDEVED


Experiments:
PR = biological target: T1, PR; test: PR transactivation reporter gene assay (Example 2); type: cell-based
Method: 12. […] PC-3 (A) or DU145 (B) cells were transfected with MMTV-CAT (2.5 μg), steroid receptor expression plasmid (AR, PR, or GR; 1.0 μg for PC-3 and 0.75 μg for DU145), and pSG5-C′-ARA54 (C′) or pSG5-mt-ARA54 (mt) (8.0 μg for PC-3 and 6.75 μg for DU145), with (for DU145) or without (for PC-3) pSG5-fl-ARA54 (2.25 μg). The total amount of DNA was adjusted to 12.5-13.25 μg with pSG5 for each transfection. […] The CAT activity is presented relative to that of vector alone with cognate ligand in each panel (black bars; set as 100%). Values represent the mean±SD of at least three determinations.
394. The human prostate cancer cell lines, LNCaP, PC-3, and DU145, were maintained in Dulbecco's minimum essential medium (DMEM) containing 5% fetal calf serum (FCS). Transfections using the calcium phosphate precipitation method and chloramphenicol acetyltransferase (CAT) and luciferase (Luc) assays were performed as previously described (Miyamoto et al. (1998) Proc. Natl. Acad. Sci. U.S.A. 95, 7379-7384; Yeh et al. (1999) Endocrine 11, 195-202; Miyamoto et al. (1998) Proc. Natl. Acad. Sci. U.S.A. 95, 11083-11088). Briefly, 1-4×10^5 cells were plated on 35-mm or 60-mm dishes 24 h before adding the precipitation mix containing a CAT or Luc reporter gene and a β-galactosidase expression plasmid (pCMV-β-gal) as an internal control for normalization of transfection efficiency. The medium was changed to phenol-red-free DMEM with 5% charcoal-stripped FCS 1 h before transfection. In each experiment, the total amount of transfected DNA per dish was maintained as a constant by addition of empty expression vector (pSG5 or pVP16, as appropriate). […] The cells were then harvested and whole cell extracts were used for CAT or Luc assay. The CAT activity was quantitated with a PhosphorImager (Molecular Dynamics). The Luc assay was determined using a Dual-Luciferase Reporter Assay System (Promega) and luminometer.

AR = details: prostate cancer cells; androgens or HF; cited from earlier work
ARA54-ARA54 interactions = biological target: T2, ARA54-ARA54 interactions; test: Mammalian two-hybrid assay of ARA54-ARA54 interaction in DU145 cells; type: cell-based
Method: 15. […] DU145 cells were transfected with 2.5 μg of GAL4-hybrid expression plasmid (pGAL0-AR (A) or pCMX-GAL4 DBD-fl-ARA54 (B)), 2.5 μg of VP16-hybrid expression plasmid (pCMX-VP16-fl-ARA54), and 2.5 μg of pG5-CAT, with or without 2.5 μg of pSG5-C′-ARA54 (C′) or pSG5-mt-ARA54 (mt). pCMX-VP16-C′-ARA54 and pCMX-VP16-mt-ARA54 were also cotransfected to test the interactions with AR (A) and fl-ARA54 (B). The total amount of DNA was adjusted to 11.0 μg with pSG5 and/or pVP16 for each transfection. The CAT activity was determined and each CAT activity is presented relative to that of lane 4 in each panel (black bars; set as 100%). Values represent the mean±SD of at least three determinations.
397. DU145 cells were transiently cotransfected with a GAL4-hybrid expression plasmid, a VP16-hybrid expression plasmid, the reporter plasmid pG5-CAT, and the pCMV-O-gal internal control plasmid. Transfections and CAT assays were performed as described above.

| Molecule | induction of PR transcription (PR; DU145 cells, cotransfected with PR) | enhancement of transactivation of wild-type AR and LNCaP mutant AR (AR) | CAT activity of GAL4-fl-ARA54 / VP16-fl-ARA54 interaction (ARA54-ARA54 interactions) | effect on fl-ARA54-induced PR transcription (PR; DU145 cells) | effect on PR-mediated transactivation (PR; PC-3 cell line, presence of P) |
| --- | --- | --- | --- | --- | --- |
| ARA54: 54 kDa protein that interacts with AR in an androgen-dependent manner; AR coactivator (protein) MSSEDREAQEDELLALASIYDGDEFRKAESVQGGETRIYLDLPQNFKIFVSGNSNECLQNSGFEYTICFLPPLVLNFELPPDYPSSSPPSFTLSGKWLSPTQLSALCKHLDNLWEEHRGSVVLFAWMQFLKEETLAYLNIVSPFELKIGSQKKVQRRTAQASPNTELDFGGAAGSDVDQEEIVDERAVQDVESLSNLIQEILDFDQAQQIKCFNSKLFLCSICFCEKLGSECMYFLECRHVYCKACLKDYFEIQIRDGQVQCLNCPEPKCPSVATPGQVKELVEAELFARYDRLLLQSSLDLMADVVYCPRPCCQLPVMQEPGCTMGICSSCNFAFCTLCRLTYHGVSPCKVTAEKLMDLRNEYLQADEANKRLLDQRYGKRVIQKALEEMESKEWLEKNSKSCPCCGTPIEKLDGCNKMTCTGCMQYFCWICMGSLSRANPYKHFNDPGSPCFNRLFYAVDVDDDIWEDEVED | 2.9 fold | 2-6 fold | – | – | – |
| C′-ARA54: C-terminal region (amino acids 361-474) of ARA54 (protein, Homo sapien, C-terminal region (amino acids 361-474) of ARA54) RNEYLQADEANKRLLDQRYGKRVIQKALEEMESKEWLEKNSKSCPCCGTPIEKLDGCNKMTCTGCMQYFCWICMGSLSRANPYKHFNDPGSPCFNRLFYAVDVDDDIWEDEVED | – | – | returned to the basal levels | little effect | only a marginal effect |
